According to the RNAGym collection of RNA variant scans (doi:10.7554/elife.80360):

B1: HDV Ribozyme (parent)
chain: GGCCGGCAUGGUCCCAGCCUCCUCGCUGGCGCCGGCUGGGCAACAUUCCGAGGGGACCGUCCCCUCGGUAAUGGCGAAUGGGACCCA

Variants of: B1
Test: self-cleavage, relative activity (ratio to wild type); higher = more cleavage; co-transcriptional

Going from C15U G68C to A16G G59C, the self-cleavage rises from 0.597 to 0.929.

Compared with C15U U65C, C15U U65G is higher in self-cleavage: 0.674 for the first, 0.914 for the second.

Compared with A16U C63G, A16C A70U is lower in self-cleavage: 0.831 for the first, 0.415 for the second.

Going from A16U C64G to C15U U46A, the self-cleavage falls from 0.782 to 0.692.

Going from C15U G25C to C15U G25U, the self-cleavage rises from 0.0723 to 0.0875.

First: A16U C33A
Second: A16C C62U
The self-cleavage of the first is lower: 0.0639 for the first, 0.804 for the second.

First: A16C C62A
Second: C15U U20C
The self-cleavage of the first is higher: 0.917 for the first, 0 for the second.

Going from C15U U20A to C15U U20G, the self-cleavage rises from 0.0692 to 0.166.

Compared with A16C G50A, A16G A45G is higher in self-cleavage: 0.525 for the first, 0.772 for the second.

First: A16G A45U
Second: A16C C32A
The self-cleavage of the first is higher: 0.712 for the first, 0.0554 for the second.

Compared with C15U G76C, C15U G76A is lower in self-cleavage: 1.03 for the first, 0.997 for the second.

Compared with A16G U37G, A16G U37C is higher in self-cleavage: 0.119 for the first, 0.997 for the second.

Compared with A16G U37A, A16C G40A is higher in self-cleavage: 0.115 for the first, 0.65 for the second.

First: A16C G40U
Second: A16G U65C
The self-cleavage of the first is lower: 0.73 for the first, 1.26 for the second.

Going from A16C G59U to A16G C64G, the self-cleavage falls from 0.808 to 0.807.

Going from A16G U47G to A16C U47C, the self-cleavage falls from 1.14 to 0.95.

First: A16C U47G
Second: A16C C57G
The self-cleavage of the first is lower: 0.185 for the first, 0.646 for the second.

Compared with A16G G53C, A16G G53U is lower in self-cleavage: 1.11 for the first, 1.02 for the second.

Compared with A16G C84G, A16U G28C is lower in self-cleavage: 0.623 for the first, 0 for the second.

Compared with A16U G28U, A16G G25C is lower in self-cleavage: 0.222 for the first, 0.166 for the second.

Going from A16C G80A to A16C A83C, the self-cleavage falls from 0.406 to 0.227.

First: A16C A83U
Second: A16U C26G
The self-cleavage of the first is lower: 0.633 for the first, 0.831 for the second.

Going from A16G U72G to A16G U72A, the self-cleavage rises from 0.332 to 0.499.

First: C15U G59C
Second: C15U G59A
The self-cleavage of the first is higher: 1.13 for the first, 0.851 for the second.

Compared with C15U G73U, C15U G82U is lower in self-cleavage: 0.269 for the first, 0.231 for the second.

First: C15U G82C
Second: A16C C41G
The self-cleavage of the first is higher: 0.166 for the first, 0.104 for the second.

Compared with A16C C41U, A16C C41A is lower in self-cleavage: 0.806 for the first, 0.388 for the second.

Compared with A16G U20G, A16G U20A is lower in self-cleavage: 0.145 for the first, 0.138 for the second.

First: A16C U72G
Second: A16G G34U
The self-cleavage of the first is lower: 0.237 for the first, 0.324 for the second.

Compared with A16G G34C, A16G G34A is higher in self-cleavage: 0.0536 for the first, 0.17 for the second.

Compared with A16G G76A, A16U C75A is lower in self-cleavage: 1.07 for the first, 0.111 for the second.

First: A16U C75U
Second: A16U C62G
The self-cleavage of the first is lower: 0.189 for the first, 0.575 for the second.

Compared with A16U C62U, A16U C85U is lower in self-cleavage: 1.04 for the first, 1.03 for the second.

First: A16G G52U
Second: A16G G52C
The self-cleavage of the first is higher: 1.07 for the first, 0.928 for the second.

First: C15U G55U
Second: A16G A78U
The self-cleavage of the first is higher: 0.729 for the first, 0.0692 for the second.

First: A16G A78G
Second: A16G A78C
The self-cleavage of the first is higher: 0.465 for the first, 0.308 for the second.

First: A16G A70U
Second: A16U A83C
The self-cleavage of the first is lower: 0.499 for the first, 0.575 for the second.

Going from A16G G82U to A16U C18G, the self-cleavage falls from 0.237 to 0.227.

Going from A16U C18U to A16U C36G, the self-cleavage falls from 0.427 to 0.0519.

First: A16U C36A
Second: A16G A71G
The self-cleavage of the first is lower: 0.0475 for the first, 0.748 for the second.

Going from A16G C75G to A16G C75U, the self-cleavage falls from 0.222 to 0.178.

Going from A16G G50C to A16G G50U, the self-cleavage rises from 0.95 to 1.02.

Compared with A16U C30A, A16G A42G is higher in self-cleavage: 0.201 for the first, 0.504 for the second.

Going from A16G A42U to A16U G31U, the self-cleavage falls from 0.396 to 0.225.

Going from A16U G31A to A16U A56C, the self-cleavage rises from 0.409 to 0.906.

First: A16U A56G
Second: A16G A56U
The self-cleavage of the first is lower: 0.831 for the first, 1.25 for the second.

Going from A16G A56C to A16U C32G, the self-cleavage falls from 0.862 to 0.156.

First: C15U U37A
Second: C15U U37C
The self-cleavage of the first is lower: 0.196 for the first, 0.923 for the second.

Going from C15U G29C to A16U G17C, the self-cleavage rises from 0.0449 to 0.68.

Going from A16U G17U to A16G G80C, the self-cleavage falls from 0.589 to 0.249.

Compared with A16G G80A, A16G C19U is lower in self-cleavage: 0.243 for the first, 0.178 for the second.

First: A16G C19A
Second: A16G C19G
The self-cleavage of the first is higher: 0.237 for the first, 0.151 for the second.

Going from A16C G81A to A16G G38C, the self-cleavage falls from 0.489 to 0.142.

First: A16G G38A
Second: A16C A77C
The self-cleavage of the first is lower: 0.213 for the first, 0.266 for the second.

Compared with A16C A77U, A16U C58U is higher in self-cleavage: 0.199 for the first, 0.962 for the second.

Compared with A16U C58A, C15U G52A is lower in self-cleavage: 1.09 for the first, 0.863 for the second.

Going from A16C C58U to A16G C66G, the self-cleavage falls from 1.05 to 0.743.

Going from A16G C66A to A16G C22U, the self-cleavage falls from 0.88 to 0.853.

First: A16C C24U
Second: A16C C24A
The self-cleavage of the first is higher: 0.287 for the first, 0.277 for the second.

First: A16C C24G
Second: A16C G76U
The self-cleavage of the first is lower: 0.0692 for the first, 0.88 for the second.

First: A16C G76C
Second: A16C G76A
The self-cleavage of the first is lower: 0.731 for the first, 1.08 for the second.

Compared with A16C A42G, A16G G67C is higher in self-cleavage: 0.229 for the first, 0.849 for the second.

Compared with A16U A87U, A16C U60G is higher in self-cleavage: 0.862 for the first, 0.939 for the second.

Going from A16G A77U to A16G C24A, the self-cleavage rises from 0.266 to 0.569.

Compared with A16G C24U, A16C C48G is lower in self-cleavage: 0.808 for the first, 0.437 for the second.

Compared with C15U C86U, A16C U69C is lower in self-cleavage: 0.895 for the first, 0.739 for the second.

Going from A16C U69A to A16C U69G, the self-cleavage rises from 0.767 to 0.923.

First: A16C U20A
Second: A16C U20C
The self-cleavage of the first is lower: 0 for the first, 0.277 for the second.

First: A16U A77C
Second: A16C G67A
The self-cleavage of the first is lower: 0.0692 for the first, 0.506 for the second.

First: A16G G74U
Second: A16C C44G
The self-cleavage of the first is higher: 0.494 for the first, 0.317 for the second.

Compared with A16C C44U, A16C C44A is lower in self-cleavage: 0.35 for the first, 0.289 for the second.

Compared with A16G C58A, A16G C58G is higher in self-cleavage: 0.762 for the first, 0.776 for the second.

Compared with A16G U60A, A16G U60G is lower in self-cleavage: 1.25 for the first, 0.554 for the second.

Going from A16C G74U to A16C G74C, the self-cleavage falls from 0.415 to 0.185.

First: A16C G74A
Second: A16C G35A
The self-cleavage of the first is lower: 0.0692 for the first, 0.175 for the second.

Compared with A16C G35U, A16C G35C is higher in self-cleavage: 0.107 for the first, 0.175 for the second.

Compared with C15U G80U, C15U G80A is higher in self-cleavage: 0.526 for the first, 0.992 for the second.

Compared with A16C C36A, A16C C36U is higher in self-cleavage: 0.135 for the first, 0.578 for the second.

First: A16C C36G
Second: C15U U60G
The self-cleavage of the first is lower: 0 for the first, 0.554 for the second.

Going from C15U U60A to C15U U60C, the self-cleavage falls from 1.15 to 0.969.

Going from A16U to A16G, the self-cleavage rises from 0.984 to 1.07.

Going from A16C to A16C A45G, the self-cleavage rises from 0.838 to 1.05.

Going from A16C A45C to A16C A45U, the self-cleavage falls from 0.35 to 0.332.

In the case of A16C U65A, the self-cleavage is reported as 0.65.
